Biological target: Moloney murine leukemia virus reverse transcriptase N-terminal fragment (MMLV RT) (Moloney murine leukemia virus, UniProt P03355 683-937)
Experiment: X-ray crystallography

Moloney murine leukemia virus reverse transcriptase N-terminal fragment (MMLV RT), sequence (P03355 683-937): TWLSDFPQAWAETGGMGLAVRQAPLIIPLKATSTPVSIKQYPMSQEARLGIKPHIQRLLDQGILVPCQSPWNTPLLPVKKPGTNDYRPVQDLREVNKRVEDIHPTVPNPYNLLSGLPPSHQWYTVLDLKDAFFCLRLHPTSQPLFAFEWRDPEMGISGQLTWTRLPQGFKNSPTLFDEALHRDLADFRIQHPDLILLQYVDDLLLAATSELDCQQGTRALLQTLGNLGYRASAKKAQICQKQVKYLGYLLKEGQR

B1: 16-mer AATT duplex (dsDNA)
DNA 1: CTTAATTCGAATTAAG
DNA 2: CTTAATTCGAATTAAG
B1: binds.

From paper PMC2740933
